According to patent US20160193316A1 (priority 1994, published 2016):

Assays:
HLA-A*0201 = HLA-A*0201 (Homo sapiens, UniProt P04439, D140Y/D185E/D98H/E176V/E277Q/G131W/G231S/I119V/I121R/I166T/I218V/L300P/L318F/N151K/N90K/P208A/P217A/Q86G/Q94H/R138H/R169H/T345S); experiment: HLA class I peptide binding assay; settings: Malaria A02 motif peptides, Table VIII; unit not given
DRB1*0301 (DR3) = molecular target: T1, DRB1*0301 (DR3) (Homo sapiens, UniProt P01903+P01911, A100K/A102G/A103R/A169T/F55Y/I96L/K41T/L162R/M171V/P40S/Q125H/Q178H/Q39Y/R42S/S66N/T106N/T262R/W38E/Y61H); experiment: HLA class II peptide binding assay (pH 4.5); settings: for DR3 binding information: unit not given; for DR3 binding data: Table XIXb
T1 construct: endogenous in cells; host or cells: MAT

HLA-B*0702 = molecular target: T2, HLA-B*0702 (Homo sapiens, UniProt P01889); experiment: HLA class I peptide binding assay; settings: Malaria B07 super motif peptides; binding value, no unit
T2 construct: endogenous in cells; host or cells: GM3107

DRB1*1201 (DR5w12) = molecular target: T3, DRB1*1201 (DR5w12) (Homo sapiens, UniProt P01903+P01911, A100R/A169T/D57E/D86V/F55L/H45Y/K41T/L162R/M171V/P40S/Q125H/Q178H/Q39Y/Q99D/R42G/S66L/T262R/V114A/V67L/W38E/Y59H/Y61H/Y89S); experiment: HLA class II peptide binding assay; settings: Table XIXb; DR5w12
T3 construct: endogenous in cells; host or cells: Herluf

DRB1*0802 (DR8w2) = molecular target: T4, DRB1*0802 (DR8w2) (Homo sapiens, UniProt P01903+P01911, A100R/A103L/A169T/F76Y/H45Y/I96F/K41T/L162R/M171V/P40S/Q125H/Q178H/Q39Y/Q99D/R218S/R42G/S66Y/V115G/W38E); experiment: biochemical; format: binding
T4 construct: endogenous in cells; host or cells: OLL

DRB1*0401 (DR4w4) = molecular target: T5, DRB1*0401 (DR4w4) (Homo sapiens, UniProt P01903+P01911, A100K/A169T/F76Y/I96L/K127E/L162R/M171V/N62H/P40V/Q125Y/R42H/S133A/S149N/S66Y/V115G/V209L/W38E); experiment: HLA class II peptide binding assay; settings: Table XIXb; DR4w4
T5 construct: endogenous in cells; host or cells: Preiss

DRB1*1501 (DR2w2β1) = molecular target: T6, DRB1*1501 (DR2w2β1) (Homo sapiens, UniProt P01903+P01911); experiment: HLA class II peptide binding assay; settings: Table XIXb; DR2w2β1
T6 construct: expressed in transfected cells; host or cells: L466.1 (fibroblasts)

DRB4*0101 (DRw53) = molecular target: T7, DRB4*0101 (DRw53) (Homo sapiens, UniProt P01903+P13762, G164S); experiment: HLA class II peptide binding assay (pH 5.0); settings: Table XIXb; DRw53
T7 construct: expressed in transfected cells; host or cells: L257.6 (fibroblasts)

DRB1*0405 (DR4w15) = molecular target: T8, DRB1*0405 (DR4w15) (Homo sapiens, UniProt P01903+P01911, A100R/A169T/D86S/F76Y/I96L/K127E/L162R/M171V/N62H/P40V/Q125Y/R42H/S133A/S149N/S66Y/V115G/V209L/W38E); experiment: HLA class II peptide binding assay; settings: Table XIXb; DR4w15
T8 construct: endogenous in cells; host or cells: KT3

DRB1*0901 (DR9) = molecular target: T9, DRB1*0901 (DR9) (Homo sapiens, UniProt P01903+P01911, A100R/A103E/D57H/D86V/F55Y/F60I/F76Y/I96F/K127E/L162R/M171V/P40D/Q125H/Q99R/R33Q/R42F/S133A/S66N/T210M/V115G/W38K/Y107V/Y59G/Y89S); experiment: biochemical; format: binding
T9 construct: endogenous in cells; host or cells: HID

DRB1*0101 (DR1) = molecular target: T10, DRB1*0101 (DR1) (Homo sapiens, UniProt P01903+P01911, A100R/D57E/F55L/F60I/F76Y/I96L/L162R/M171V/P40L/Q125E/R42F/V115G/Y59C); experiment: HLA class II peptide binding assay; settings: Table XIXb, Malaria Super Motif Peptides With Binding Data; DR1
T10 construct: endogenous in cells; host or cells: LG2

DRB5*0101 (DR2w2β2) = molecular target: T11, DRB5*0101 (DR2w2β2) (Homo sapiens, UniProt P01903+Q30154); format: binding
T11 construct: expressed in transfected cells; host or cells: L416.3 (fibroblasts) or GM3107

DRB1*1302 (DR6w19) = molecular target: T12, DRB1*1302 (DR6w19) (Homo sapiens, UniProt P01903+P01911, A100E/A169T/K41T/L162R/M171V/P40S/Q125H/Q178H/Q39Y/Q99D/R42S/S66N/T262R/V115G/W38E/Y61H); experiment: HLA class II peptide binding assay; settings: Table XIXb; DR6w19
T12 construct: endogenous in cells; host or cells: H0301

DRB1*0701 (DR7) = molecular target: T13, DRB1*0701 (DR7) (Homo sapiens, UniProt P01903+P01911, A100R/A102G/A103Q/D57E/D86V/E43K/F76Y/K127E/L162R/M171V/P40G/Q125H/Q99D/R33Q/R42Y/R54Q/S133A/S66F/T210M/V115G/Y107V/Y59L/Y89S); experiment: biochemical; format: binding
T13 construct: endogenous in cells; host or cells: Pitout

DRB1*1101 (DR5w11) = molecular target: T14, DRB1*1101 (DR5w11) (Homo sapiens, UniProt P01903+P01911, A100R/A169T/A87E/I96F/K41T/L162R/M171V/P40S/Q125H/Q178H/Q39Y/Q99D/R42S/S66Y/T262R/V115G/W38E); experiment: biochemical; format: binding
T14 construct: endogenous in cells; host or cells: Sweig
T14 sequence (P01903 26-254, other chains not shown): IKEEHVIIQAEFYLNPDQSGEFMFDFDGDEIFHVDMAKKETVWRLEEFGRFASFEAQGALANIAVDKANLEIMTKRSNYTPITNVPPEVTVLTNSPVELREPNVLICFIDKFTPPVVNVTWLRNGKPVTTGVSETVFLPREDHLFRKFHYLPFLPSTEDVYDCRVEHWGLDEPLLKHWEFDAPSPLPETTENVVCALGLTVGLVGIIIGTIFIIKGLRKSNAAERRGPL

T5 sequence (P01903 26-254 partner, other chains not shown): as the sequence (P01903 26-254, other chains not shown) above
T12 sequence (P01903 26-254, other chains not shown): as above
T10 sequence (P01903 26-254 partner, other chains not shown): as the sequence (P01903 26-254, other chains not shown) above

In the case of LAGGLALLA, the “A*0201 (binding information)” value (HLA-A*0201) is reported as 0.0001.

For ALLQVRKHL, the DR3 binding information (DRB1*0301 (DR3); Malaria DR3b motif peptides) was -0.0033 and the “A*0201 (binding information)” value (HLA-A*0201) was 0.0010.

AMICLIQQLNL was tested, and the “A*0201 (binding information)” value (HLA-A*0201) was 0.0006.

With TPYAGEPAPF the “B*0702 (binding information)” value (HLA-B*0702) was 0.0990.

For VPGAAIPYA, the “B*0702 (binding information)” value (HLA-B*0702) was 0.0001.

VIGPFMKAV gave a DR5w12 binding data (DRB1*1201 (DR5w12)) of 0.0920, a DR8w2 binding data (DRB1*0802 (DR8w2)) of 0.0230 and a DR4w4 binding data (DRB1*0401 (DR4w4)) of -0.0020. The “A*0201 (binding information)” value (HLA-A*0201) was 0.0004.

With FMKAVCVEV the DR2w2β1 binding data (DRB1*1501 (DR2w2β1)) was 0.0003, the DRw53 binding data (DRB4*0101 (DRw53)) was 0.0700 and the DR4w15 binding data (DRB1*0405 (DR4w15)) was 0.0086. It also gave a DR9 binding data (DRB1*0901 (DR9)) of 0.0820, a DR5w12 binding data (DRB1*1201 (DR5w12)) of 0.0038 and a DR1 binding data (DRB1*0101 (DR1)) of 0.0072. The DR2w2β2 binding data (DRB5*0101 (DR2w2β2)) was 0.0430, the DR8w2 binding data (DRB1*0802 (DR8w2)) was -0.0003 and the DR4w4 binding data (DRB1*0401 (DR4w4)) was -0.0006. The DR3 binding data (DRB1*0301 (DR3)) was -0.0008, the DR6w19 binding data (DRB1*1302 (DR6w19)) was 0.0003 and the DR7 binding data (DRB1*0701 (DR7)) was 0.0019. The DR5w11 binding data (DRB1*1101 (DR5w11)) was -0.0004 and the “A*0201 (binding information)” value (HLA-A*0201) was 0.0290.

With SVLACLLGNV the “A*0201 (binding information)” value (HLA-A*0201) was 0.0022.

In the case of KLRICPICHKKL, the “A*0201 (binding information)” value (HLA-A*0201) is reported as 0.0001.

For VLLGGVCLVL, the “A*0201 (binding information)” value (HLA-A*0201) was 0.0290.

In the case of IPEDSEKEV, the “B*0702 (binding information)” value (HLA-B*0702) is reported as 0.0001 and the DR3 binding information (DRB1*0301 (DR3); DR3a motif peptides, exemplary 15-mer containing the core sequence) is reported as -0.0130.

In the case of GPFMKAVCV, the “B*0702 (binding information)” value (HLA-B*0702) is reported as 0.0023.

VSTVLLGGV was tested, and the DR2w2β1 binding data (DRB1*1501 (DR2w2β1)) was 0.0001, the DRw53 binding data (DRB4*0101 (DRw53)) was -0.0005 and the DR4w15 binding data (DRB1*0405 (DR4w15)) was -0.0014. The DR9 binding data (DRB1*0901 (DR9)) was -0.0005, the DR5w12 binding data (DRB1*1201 (DR5w12)) was 0.0005 and the DR1 binding data (DRB1*0101 (DR1)) was 0.0140. It also gave a DR2w2β2 binding data (DRB5*0101 (DR2w2β2)) of -0.0005, a DR8w2 binding data (DRB1*0802 (DR8w2)) of -0.0003 and a DR4w4 binding data (DRB1*0401 (DR4w4)) of 0.0016. For the same sequence, the DR3 binding data (DRB1*0301 (DR3)) was -0.0008, the DR6w19 binding data (DRB1*1302 (DR6w19)) was 0.0006 and the DR7 binding data (DRB1*0701 (DR7)) was -0.0003. It also gave a DR5w11 binding data (DRB1*1101 (DR5w11)) of -0.0002.

With LLGGVCLVL the “A*0201 (binding information)” value (HLA-A*0201) was 0.0038.
